Results: publication PMC8299537

Biological target: DPP9, short isoform (His-TEV-DPP9), co-purified with NLRP1ΔΔ (human), Q86TI2
Assay: cryo-EM structure
Conditions: remark: other sources report otherwise

stoichiometry N: 2
B1: DPP9, short isoform (His-TEV-DPP9), co-purified with NLRP1ΔΔ, Q86TI2-1 1-863 (enzyme)
chain: MATTGTPTADRGDAAATDDPAARFQVQKHSWDGLRSIIHGSRKYSGLIVNKAPHDFQFVQKTDESGPHSHRLYYLGMPYGSRENSLLYSEIPKKVRKEALLLLSWKQMLDHFQATPHHGVYSREEELLRERKRLGVFGITSYDFHSESGLFLFQASNSLFHCRDGGKNGFMVSPMKPLEIKTQCSGPRMDPKICPADPAFFSFINNSDLWVANIETGEERRLTFCHQGLSNVLDDPKSAGVATFVIQEEFDRFTGYWWCPTASWEGSEGLKTLRILYEEVDESEVEVIHVPSPALEERKTDSYRYPRTGSKNPKIALKLAEFQTDSQGKIVSTQEKELVQPFSSLFPKVEYIARAGWTRDGKYAWAMFLDRPQQWLQLVLLPPALFIPSTENEEQRLASARAVPRNVQPYVVYEEVTNVWINVHDIFYPFPQSEGEDELCFLRANECKTGFCHLYKVTAVLKSQGYDWSEPFSPGEDEFKCPIKEEIALTSGEWEVLARHGSKIWVNEETKLVYFQGTKDTPLEHHLYVVSYEAAGEIVRLTTPGFSHSCSMSQNFDMFVSHYSSVSTPPCVHVYKLSGPDDDPLHKQPRFWASMMEAASCPPDYVPPEIFHFHTRSDVRLYGMIYKPHALQPGKKHPTVLFVYGGPQVQLVNNSFKGIKYLRLNTLASLGYAVVVIDGRGSCQRGLRFEGALKNQMGQVEIEDQVEGLQFVAEKYGFIDLSRVAIHGWSYGGFLSLMGLIHKPQVFKVAIAGAPVTVWMAYDTGYTERYMDVPENNQHGYEAGSVALHVEKLPNEPNRLLILHGFLDENVHFFHTNFLVSQLIRAGKPYQLQIYPNERHSIRCPESGEHYEVTLLHFLQEYL
